According to patent US20180057589A1 (Genentech, published 2018):

Key:
[1] = target: T1, FLAG-Human-Notch2-NRR-6xHis (human, UniProt Q04721 1306-1676); assay: SPR (BIAcore-3000), IgG captured by anti-human IgG, Notch2 NRR injected; human Notch2 NRR antigen
T1 construct: Whole tagged antigen construct; also called NRR2; hNotch2 NRR
T1 sequence: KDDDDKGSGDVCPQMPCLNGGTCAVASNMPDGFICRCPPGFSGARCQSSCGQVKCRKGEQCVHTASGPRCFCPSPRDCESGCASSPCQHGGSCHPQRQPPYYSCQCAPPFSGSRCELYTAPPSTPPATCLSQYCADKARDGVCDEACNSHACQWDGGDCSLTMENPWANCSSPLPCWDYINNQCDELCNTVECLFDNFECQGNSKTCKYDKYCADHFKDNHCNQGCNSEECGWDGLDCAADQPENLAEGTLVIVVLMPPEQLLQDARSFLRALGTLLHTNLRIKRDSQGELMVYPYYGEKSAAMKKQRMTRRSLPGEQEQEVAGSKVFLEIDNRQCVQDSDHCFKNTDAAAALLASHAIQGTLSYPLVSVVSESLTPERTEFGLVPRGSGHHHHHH
Description: (§1) For kinetics measurements, two-fold serial dilutions of human and mouse Notch2 NRR (3.9 nM to 500 nM) were injected in PBT buffer (PBS with 0.05% Tween 20) at 25° C. with a flow rate of 30 μl/min. Association rates (kₒₙ) and dissociation rates (koff) were calculated using a simple one-to-one Langmuir binding model (BIAcore Evaluation Software version 3.2). The equilibrium dissociation constant (KD) was calculated as the ratio koff/kₒₙ.

Mouse Notch2-NRR-FLAG = target: T2, Mouse Notch2-NRR-FLAG (mouse, UniProt O35516 1306-1678); assay: SPR (BIAcore-3000), IgG captured by anti-human IgG, Notch2 NRR injected; mouse Notch2 NRR antigen
T2 construct: Whole tagged antigen construct; also called murine Notch2 NRR; mNotch2 NRR
T2 sequence: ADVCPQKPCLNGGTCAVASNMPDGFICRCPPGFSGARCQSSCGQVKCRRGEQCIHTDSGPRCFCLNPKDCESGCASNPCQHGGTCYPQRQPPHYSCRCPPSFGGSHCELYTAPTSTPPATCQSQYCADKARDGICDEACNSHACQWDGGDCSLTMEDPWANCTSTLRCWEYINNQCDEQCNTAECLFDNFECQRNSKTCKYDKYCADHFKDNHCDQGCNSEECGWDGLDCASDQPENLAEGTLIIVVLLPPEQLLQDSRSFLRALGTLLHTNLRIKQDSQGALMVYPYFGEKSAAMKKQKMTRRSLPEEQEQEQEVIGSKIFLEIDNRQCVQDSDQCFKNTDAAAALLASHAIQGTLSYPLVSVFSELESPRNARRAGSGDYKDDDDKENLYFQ
Description: as §1

mouse Notch4-NRR protein = target: T3, mouse Notch4-NRR protein (mouse, UniProt P31695 1168-1441, limits assumed); assay: ELISA, lower panel: Flag-tagged NRR protein captured by anti-Flag antibody, titration of α-NRR2, A560
T3 construct: domain: NRR; also called mNotch4 NRR
T3 sequence (looked up): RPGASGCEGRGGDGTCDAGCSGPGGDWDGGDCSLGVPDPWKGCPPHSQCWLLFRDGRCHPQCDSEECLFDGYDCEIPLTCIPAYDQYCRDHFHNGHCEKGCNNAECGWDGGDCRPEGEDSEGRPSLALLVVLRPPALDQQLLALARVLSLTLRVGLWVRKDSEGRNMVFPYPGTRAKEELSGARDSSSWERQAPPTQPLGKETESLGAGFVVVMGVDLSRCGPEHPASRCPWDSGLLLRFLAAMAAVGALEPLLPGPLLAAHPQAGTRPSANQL
Excerpt: (§2) Anti-Flag antibody was used to capture Flag-Tagged NRR protein from all four Notch receptors in a black walled, high binding plate (Greiner). NRR antibody and E25 control antibodies were bound to the NRR proteins and washed away with PBS. An Alkaline Phosphate conjugated anti-human (H+L) secondary antibody (Jackson ImmunoResearch) was used to detect bound anti-NRR and E25. Unbound secondary was washed away and AP was detected with PNPP substrate (Pierce).

human Notch1 NRR protein = target: T4, human Notch1 NRR protein (human, UniProt P46531 1446-1733); assay: as above
T4 construct: Purified NRR fragment (Flag-tagged in the ELISA); also called NRR1; hNotch1 NRR
T4 sequence: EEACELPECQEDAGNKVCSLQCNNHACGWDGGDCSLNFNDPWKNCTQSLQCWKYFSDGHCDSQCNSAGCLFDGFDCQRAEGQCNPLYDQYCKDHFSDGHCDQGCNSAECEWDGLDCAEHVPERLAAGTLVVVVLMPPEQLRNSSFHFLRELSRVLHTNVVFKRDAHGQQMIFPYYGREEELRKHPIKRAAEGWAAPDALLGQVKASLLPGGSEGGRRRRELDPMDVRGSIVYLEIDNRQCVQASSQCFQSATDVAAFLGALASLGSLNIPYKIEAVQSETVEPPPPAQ
Excerpt: as §2

mouse Notch1 NRR protein = target: T5, mouse Notch1 NRR protein (mouse, UniProt Q01705 1446-1723); assay: as above
T5 construct: Purified NRR fragment (Flag-tagged in the ELISA); also called mNotch1 NRR
T5 sequence: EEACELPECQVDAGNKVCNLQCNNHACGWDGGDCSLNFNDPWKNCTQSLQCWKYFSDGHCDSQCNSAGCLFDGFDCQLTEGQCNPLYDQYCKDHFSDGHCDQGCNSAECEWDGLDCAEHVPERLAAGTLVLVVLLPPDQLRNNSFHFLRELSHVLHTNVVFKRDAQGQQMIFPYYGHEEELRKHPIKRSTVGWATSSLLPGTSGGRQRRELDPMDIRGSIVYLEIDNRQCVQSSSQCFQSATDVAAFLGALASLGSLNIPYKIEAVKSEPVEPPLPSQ
Excerpt: as §2

human Notch3-NRR protein = target: T6, human Notch3-NRR protein (human, UniProt Q9UM47 1384-1641, limits assumed); assay: as above
T6 construct: domain: NRR; also called hNotch3 NRR
T6 sequence (looked up): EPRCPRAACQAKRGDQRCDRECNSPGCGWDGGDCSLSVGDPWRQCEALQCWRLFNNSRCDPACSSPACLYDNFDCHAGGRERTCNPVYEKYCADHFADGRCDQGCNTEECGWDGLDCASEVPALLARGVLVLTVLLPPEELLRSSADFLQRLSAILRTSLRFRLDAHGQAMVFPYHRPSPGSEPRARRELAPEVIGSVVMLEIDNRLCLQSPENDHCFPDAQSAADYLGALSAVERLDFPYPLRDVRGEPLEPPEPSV
Excerpt: as §2

mouse Notch3-NRR protein = target: T7, mouse Notch3-NRR protein (mouse, UniProt Q61982 1385-1641, limits assumed); assay: as above
T7 construct: domain: NRR; also called mNotch3 NRR
T7 sequence (looked up): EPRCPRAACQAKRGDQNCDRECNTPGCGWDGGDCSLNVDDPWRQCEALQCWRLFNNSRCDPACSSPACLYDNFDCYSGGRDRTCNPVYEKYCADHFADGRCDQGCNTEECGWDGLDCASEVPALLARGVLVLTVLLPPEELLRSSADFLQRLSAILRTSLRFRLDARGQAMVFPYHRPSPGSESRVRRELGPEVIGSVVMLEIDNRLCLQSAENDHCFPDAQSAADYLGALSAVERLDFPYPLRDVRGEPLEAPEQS
Excerpt: as §2

human Notch4-NRR protein = target: T8, human Notch4-NRR protein (human, UniProt Q99466 1172-1445, limits assumed); assay: as above
T8 construct: domain: NRR; also called hNotch4 NRR
T8 sequence (looked up): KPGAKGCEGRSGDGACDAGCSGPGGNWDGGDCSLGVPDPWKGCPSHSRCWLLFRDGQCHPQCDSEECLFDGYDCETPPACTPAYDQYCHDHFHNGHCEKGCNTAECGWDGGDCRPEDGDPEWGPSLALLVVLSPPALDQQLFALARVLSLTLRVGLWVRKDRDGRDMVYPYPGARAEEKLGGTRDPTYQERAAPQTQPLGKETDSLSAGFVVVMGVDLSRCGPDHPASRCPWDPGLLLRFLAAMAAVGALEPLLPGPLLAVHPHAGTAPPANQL
Excerpt: as §2

[2] = target: T1, FLAG-Human-Notch2-NRR-6xHis; assay: ELISA, lower panel: Flag-tagged NRR protein captured by anti-Flag antibody, titration of α-NRR2, AP-conjugated anti-human secondary antibody, A560
Excerpt: as §2

Kd [1]: 5 nM
Kd (Mouse Notch2-NRR-FLAG): 5 nM
binding result (mouse Notch4-NRR protein): no binding (tested: 10 ug/ml)
binding result (human Notch1 NRR protein): no binding (tested: 10 ug/ml)
binding result (mouse Notch1 NRR protein): no binding (tested: 10 ug/ml)
binding result (human Notch3-NRR protein): no binding (tested: 10 ug/ml)
binding result (mouse Notch3-NRR protein): no binding (tested: 10 ug/ml)
binding result (human Notch4-NRR protein): no binding (tested: 10 ug/ml)
EC50 (read off the curve) [2]: ~0.03 µg/mL
B1: Antibody D-3 (antibody, V domains shown)
VH: EVQLVESGGGLVQPGGSLRLSCAASGYTFSSYGMSWVRQAPGKGLEWVSYIYPYSGATYYADSVKGRFTISADTSKNTAYLQMNSLRAEDTAVYYCARHSGYYRISSAMDVWGQGTLVTVSA
VL: DIQMTQSPSSLSASVGDRVTITCRASQNIKRFLAWYQQKPGKAPKLLIYGASTRESGVPSRFSGSGSGTDFTLTISSLQPEDFATYYCQQYYRSPHTFGQGTKVEIKR
notes: also called anti-NRR2; α-NRR2
